In PMC5505470:
Read-outs that look alike come from different tables or passages of the source.

Columns and labels:
PTBP1 full length = PTBP1 full length (UniProt P26599-1 1-531, C250S;C251S); experiment: UV crosslinking CLIR-MS/MS
PTBP1-RRM1 [1] = molecular target: T1, PTBP1-RRM1 (UniProt P26599-1 41-163); experiment: NMR
PTBP1-RRM2 [2] = molecular target: T2, PTBP1-RRM2 (UniProt P26599-1 178-317, C250S;C251S); experiment: NMR
PTBP1-RRM1;PTBP1-RRM34 = PTBP1-RRM1;PTBP1-RRM34 (;, UniProt P26599-1;P26599-1 41-163;324-531, |); experiment: NMR
PTBP1-RRM34 = PTBP1-RRM34 (UniProt P26599-1 324-531); experiment: NMR
PTBP1-RRM1 [3] = molecular target: T1, PTBP1-RRM1; experiment: NMR; remark: listed apart in the source
PTBP1-RRM2 [4] = molecular target: T2, PTBP1-RRM2; experiment: NMR solution structure model

B1: EMCVDElinkF (structured_RNA)
RNA: GGAUACUGGCCGAAGCCGCUUGGAAUAAGGCCGGUGUGCGUUUGUCUAUAUGUUAUUUUCCACCAUAUUGCCGUCUUUUGGCAAUGUG
binding result (PTBP1 full length): binds

GGAGCGUUUGUCUAUAUGUUCC (structured_RNA) [EMCVE]
binding result (PTBP1-RRM1 [1]): binds
binding result (PTBP1-RRM2 [2]): binds

B2: EMCVDElink (structured_RNA)
RNA: GGAUACUGGCCGAAGCCGCUUGGAAUAAGGCCGGUGUGCGUUUGUCUAUAUGUUAUUUUCCAC
binding result (PTBP1-RRM1;PTBP1-RRM34): binds
binding result (PTBP1-RRM34): binds

GGAUAUUGCCGUCUUUUGGCAAUGUCC (structured_RNA) [EMCVF]
binding result (PTBP1-RRM1 [3]): binds
binding result (PTBP1-RRM2 [4]): binds
